Assay results from US20240117062A1 (published 2024).

T1: Human BCMA-Avi-His (human, UniProt Q02223 2-54)
T1 chain: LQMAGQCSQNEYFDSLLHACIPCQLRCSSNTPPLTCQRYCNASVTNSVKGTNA

T2: Human BCMA DTA-His (human;, UniProt Q02223 1-54; P00588 33-225)
T2 chain: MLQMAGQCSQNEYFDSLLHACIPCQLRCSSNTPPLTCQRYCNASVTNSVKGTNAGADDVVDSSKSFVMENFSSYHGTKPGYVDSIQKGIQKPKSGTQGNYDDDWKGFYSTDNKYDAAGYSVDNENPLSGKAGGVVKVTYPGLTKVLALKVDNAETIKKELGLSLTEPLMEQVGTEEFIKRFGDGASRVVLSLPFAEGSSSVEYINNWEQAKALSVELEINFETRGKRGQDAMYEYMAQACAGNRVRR


Tests used:
Assay in all cases: SPR
[1] = target: Cyno BCMA DTA-His (cynomolgus;, UniProt A0A2K5UD97 1-53; P00588 33-225)
[2] = target: T1, Human BCMA-Avi-His
[3] = target: T2, Human BCMA DTA-His
[4] = target: Cyno BCMA-Avi-His (cynomolgus, UniProt A0A2K5UD97 2-53)
Sequence of Cyno BCMA-Avi-His (A0A2K5UD97 entry or part of it): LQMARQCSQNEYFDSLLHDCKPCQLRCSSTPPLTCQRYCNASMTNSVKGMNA

| Binder | Kd [1] [nM] | Kd [2] [nM] | Kd [3] [nM] | Kd [4] [nM] |
| --- | --- | --- | --- | --- |
| CA10_parental (antibody, V domains shown) VH: QVQLVESGGGVVQPGRSLRLSCAASGFTFSNFGMHWVRQAPGRGLEWVAVIWSDETNRYYADSVKGRFTVSRDNVKSTVYLQMNSLISEDTAVYYCARDQQYCSSDSCFTWFDPWGQGTLVTVSS VL: QVVVTQESALTTSPGETVTLTCRSSTGTVTPSNYANWVQEKPDHFFTGLIGDNNSRPPGVPARFSASLIGDKAALTITGAQTEDEAMYFCALWFGNQWVFGGGTKVTVL | 0.0314 | 0.0694 | 0.393 | 1.43 |
| CA10 Variant 3 (antibody, V domains shown) VH: QVQLVESGGGVVQPGRSLRLSCAASGFTFSNFGMHWVRQAPGRGLEWVAVIWSDETNRYYADSVKGRFTVSRDNVKSTVYLQMNSLISEDTAVYYCARDQQYCSSDSCFTWFDPWGQGTLVTVSS VL: QTVVTQEPSLTVSPGGTVTLTCASSTGAVTPSNYANWVQQKPGQAPRGLIGDNNIKPPWTPARFSGSLLGGKAALTLSGVQPEDEAEYYCALWYGGQWVFGGGTKLTVL | 0.861 | 0.182 | 0.247 | 11.6 |
| CA10 Variant 6 (antibody, V domains shown) VH: QVQLVESGGGVVQPGRSLRLSCAASGFTFSNFGMHWVRQAPGRGLEWVAVIWSDETNRYYADSVKGRFTVSRDNVKSTVYLQMNSLISEDTAVYYCARDQQYCSSDSCFTWFDPWGQGTLVTVSS VL: QTVVTQEPSLTVSPGGTVTLTCASSTGTVTPSNYANWVQQKPGQFPRGLIGDNNSRPPGTPARFSASLLGGKAALTLSGVQPEDEAEYYCALWFGNQWVFGGGTKLTVL | 0.0962 | 0.075 | 0.0399 | 1.18 |
| CA10 Variant 1 (antibody, V domains shown) VH: QVQLVESGGGVVQPGRSLRLSCAASGFTFSNFGMHWVRQAPGRGLEWVAVIWSDETNRYYADSVKGRFTVSRDNVKSTVYLQMNSLISEDTAVYYCARDQQYCSSDSCFTWFDPWGQGTLVTVSS VL: QTVVTQEPSLTVSPGGTVTLTCRSSTGTVTPSNYANWVQQKPDHFFTGLIGDNNSRPPGVPARFSASLIGDKAALTLSGVQPEDEAEYYCALWFGNQWVFGGGTKLTVL | 0.0418 | 0.0573 | 0.247 | 0.732 |
| CA10 Variant 4 (antibody, V domains shown) VH: QVQLVESGGGVVQPGRSLRLSCAASGFTFSNFGMHWVRQAPGRGLEWVAVIWSDETNRYYADSVKGRFTVSRDNVKSTVYLQMNSLISEDTAVYYCARDQQYCSSDSCFTWFDPWGQGTLVTVSS VL: QTVVTQEPSLTVSPGGTVTLTCASSTGAVTPGYYANWVQQKPGQAPRGLIGDNNNKPPWTPARFSGSLLGGKAALTLSGVQPEDEAEYYCALYYGGQWVFGGGTKLTVL | 13 | 2.57 | 3.07 | 64.2 |
| CA10 Variant 5 (CA10_PE_V5) (antibody, V domains shown) VH: QVQLVESGGGVVQPGRSLRLSCAASGFTFSNFGMHWVRQAPGRGLEWVAVIWSDETNRYYADSVKGRFTVSRDNVKSTVYLQMNSLISEDTAVYYCARDQQYCSSDSCFTWFDPWGQGTLVTVSS VL: QTVVTQEPSLTVSPGGTVTLTCASSTGAVTSGYYANWVQQKPGQAPRALIGDNNIKPSWTPARFSGSLLGGKAALTLSGVQPEDEAEYYCALYYGGQWVFGGGTKLTVL | 1.26 |  |  | 8.55 |
| CA10 Variant 2 (antibody, V domains shown) VH: QVQLVESGGGVVQPGRSLRLSCAASGFTFSNFGMHWVRQAPGRGLEWVAVIWSDETNRYYADSVKGRFTVSRDNVKSTVYLQMNSLISEDTAVYYCARDQQYCSSDSCFTWFDPWGQGTLVTVSS VL: QTVVTQEPSLTVSPGGTVTLTCASSTGTVTPSNYANWVQQKPGQAPRGLIGDNNSRPPGTPARFSASLLGGKAALTLSGVQPEDEAEYYCALWFGNQWVFGGGTKLTVL | 0.0915 | 0.0666 | 0.478 | 1.89 |
